Laboratory results: patent US20150344570A1 (published 2015)

T1: FcγRIIa R (FcγRIIa allotype with Arg at position 131), extracellular domain with C-terminal His tag (human, UniProt P12318 34-217)
T1 construct: extracellular domain; made in FreeStyle293 cells; analyte in the Biacore assay; also called FcγRIIa type R; 2aR
T1 sequence (looked up): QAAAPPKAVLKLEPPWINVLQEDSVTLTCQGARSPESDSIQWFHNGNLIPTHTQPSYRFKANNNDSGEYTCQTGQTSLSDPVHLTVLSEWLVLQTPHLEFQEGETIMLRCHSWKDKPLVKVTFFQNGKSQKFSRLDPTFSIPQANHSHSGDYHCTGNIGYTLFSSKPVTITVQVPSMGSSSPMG

T2: FcγRIIb, extracellular domain with C-terminal His tag (human, UniProt P31994 43-217)
T2 construct: extracellular domain; made in FreeStyle293 cells; analyte in the Biacore assay; also called 2b; FcgRIIb
T2 sequence (looked up): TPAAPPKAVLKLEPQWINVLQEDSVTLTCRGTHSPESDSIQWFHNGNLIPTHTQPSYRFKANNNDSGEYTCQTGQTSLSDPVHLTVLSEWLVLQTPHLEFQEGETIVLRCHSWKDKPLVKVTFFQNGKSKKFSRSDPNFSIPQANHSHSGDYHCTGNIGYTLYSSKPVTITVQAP

T3: FcγRIIb (human, UniProt P31994 43-217)
T3 construct: extracellular domain; also called FcgRIIb; 2b
T3 sequence (looked up): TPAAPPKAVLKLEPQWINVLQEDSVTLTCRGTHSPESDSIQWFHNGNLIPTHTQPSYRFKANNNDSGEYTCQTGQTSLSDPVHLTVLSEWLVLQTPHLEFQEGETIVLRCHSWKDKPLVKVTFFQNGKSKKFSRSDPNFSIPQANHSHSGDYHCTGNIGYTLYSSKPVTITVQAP


Columns and labels:
[1] = biological target: T1, FcγRIIa R (FcγRIIa allotype with Arg at …); assay: SPR (Biacore), antibody captured, FcγR analyte; vs GpH7-A5/GpH7-B3/GpL16-k0 = 100
[2] = biological target: T2, FcγRIIb, extracellular domain with …; assay: as above
FcγRIIb = biological target: T3, FcγRIIb; assay: SPR (Biacore), relative binding
FcγRIIIa = biological target: T4, FcγRIIIa (human, UniProt P08637 17-208); assay: SPR (Biacore), relative binding
T4 construct: extracellular domain; also called FcgRIIIa; 3a
T4 sequence (P08637 17-208): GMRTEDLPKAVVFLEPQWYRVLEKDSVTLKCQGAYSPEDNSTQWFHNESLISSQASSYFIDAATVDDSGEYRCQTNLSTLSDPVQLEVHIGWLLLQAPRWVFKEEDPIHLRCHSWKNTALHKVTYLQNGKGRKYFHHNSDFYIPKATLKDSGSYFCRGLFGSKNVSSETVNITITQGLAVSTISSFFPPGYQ

| Binder | He/Con_2aR [1] | He/Con_2b [2] | He/Con_2b (FcγRIIb) | He/Con_3a (FcγRIIIa) |
| --- | --- | --- | --- | --- |
| GpH7-A5/GpH7-B3 variant K334_12R/GpL16-k0 (antibody, human IgG1, kappa, mutation in the GpH7-B3 chain only; also called He Ab) heavy 1: not shown heavy 2: not shown light: DIVMTQSPLSLPVTPGEPASISCQASESLVHSNRNTYLHWYLQKPGQSPQLLIYKVSNRFSGVPDRFSGSGSGTDFTLKISRVEAEDVGVYYCSQNTHVPPTFGQGTKVEIERTVAAPSVFIFPPSDEQLKSGTASVVCLLNNFYPREAKVQWKVDNALQSGNSQESVTEQDSKDSTYSLSSTLTLSKADYEKHKVYACEVTHQGLSSPVTKSFNRGEC |  |  | 111 % of GpH7-A5/GpH7-B3/GpL16-k0 | 90.8 % of GpH7-A5/GpH7-B3/GpL16-k0 |
| GpH7-A5/GpH7-B3 variant L328_02A/GpL16-k0 (antibody, human IgG1, kappa, mutation in the GpH7-B3 chain only; also called He Ab) heavy 1: not shown heavy 2: not shown light: DIVMTQSPLSLPVTPGEPASISCQASESLVHSNRNTYLHWYLQKPGQSPQLLIYKVSNRFSGVPDRFSGSGSGTDFTLKISRVEAEDVGVYYCSQNTHVPPTFGQGTKVEIERTVAAPSVFIFPPSDEQLKSGTASVVCLLNNFYPREAKVQWKVDNALQSGNSQESVTEQDSKDSTYSLSSTLTLSKADYEKHKVYACEVTHQGLSSPVTKSFNRGEC |  |  | 144 % of GpH7-A5/GpH7-B3/GpL16-k0 | 79.1 % of GpH7-A5/GpH7-B3/GpL16-k0 |
| GpH7-A5/GpH7-B3 variant Y296_14T/GpL16-k0 (antibody, human IgG1, kappa, heterodimerized IgG1, mutation in one H chain only; also called He Ab) heavy 1: not shown heavy 2: not shown light: DIVMTQSPLSLPVTPGEPASISCQASESLVHSNRNTYLHWYLQKPGQSPQLLIYKVSNRFSGVPDRFSGSGSGTDFTLKISRVEAEDVGVYYCSQNTHVPPTFGQGTKVEIERTVAAPSVFIFPPSDEQLKSGTASVVCLLNNFYPREAKVQWKVDNALQSGNSQESVTEQDSKDSTYSLSSTLTLSKADYEKHKVYACEVTHQGLSSPVTKSFNRGEC | 103 relative (HeCon Ab = 100) | 88.2 relative (HeCon Ab = 100) |  |  |
| GpH7-A5/GpH7-B3 variant A330_01G/GpL16-k0 (antibody, human IgG1, kappa, mutation in the GpH7-B3 chain only; also called He Ab) heavy 1: not shown heavy 2: not shown light: DIVMTQSPLSLPVTPGEPASISCQASESLVHSNRNTYLHWYLQKPGQSPQLLIYKVSNRFSGVPDRFSGSGSGTDFTLKISRVEAEDVGVYYCSQNTHVPPTFGQGTKVEIERTVAAPSVFIFPPSDEQLKSGTASVVCLLNNFYPREAKVQWKVDNALQSGNSQESVTEQDSKDSTYSLSSTLTLSKADYEKHKVYACEVTHQGLSSPVTKSFNRGEC |  |  | 104 % of GpH7-A5/GpH7-B3/GpL16-k0 | 89.1 % of GpH7-A5/GpH7-B3/GpL16-k0 |
| GpH7-A5/GpH7-B3 variant A327_10E/GpL16-k0 (antibody, human IgG1, kappa, mutation in the GpH7-B3 chain only; also called He Ab) heavy 1: not shown heavy 2: not shown light: DIVMTQSPLSLPVTPGEPASISCQASESLVHSNRNTYLHWYLQKPGQSPQLLIYKVSNRFSGVPDRFSGSGSGTDFTLKISRVEAEDVGVYYCSQNTHVPPTFGQGTKVEIERTVAAPSVFIFPPSDEQLKSGTASVVCLLNNFYPREAKVQWKVDNALQSGNSQESVTEQDSKDSTYSLSSTLTLSKADYEKHKVYACEVTHQGLSSPVTKSFNRGEC |  |  | 140 % of GpH7-A5/GpH7-B3/GpL16-k0 | 68.6 % of GpH7-A5/GpH7-B3/GpL16-k0 |

Results, then the binder that gave them:

| He/Con_2aR [1] | He/Con_2b [2] | He/Con_2b (FcγRIIb) | He/Con_3a (FcγRIIIa) | Binder |
| --- | --- | --- | --- | --- |
| 103 relative (HeCon Ab = 100) | 98 relative (HeCon Ab = 100) |  |  | GpH7-A5/GpH7-B3 variant Y296_10E/GpL16-k0 (antibody, human IgG1, kappa, heterodimerized IgG1, mutation in one H chain only; also called He Ab) heavy 1: not shown heavy 2: not shown light: DIVMTQSPLSLPVTPGEPASISCQASESLVHSNRNTYLHWYLQKPGQSPQLLIYKVSNRFSGVPDRFSGSGSGTDFTLKISRVEAEDVGVYYCSQNTHVPPTFGQGTKVEIERTVAAPSVFIFPPSDEQLKSGTASVVCLLNNFYPREAKVQWKVDNALQSGNSQESVTEQDSKDSTYSLSSTLTLSKADYEKHKVYACEVTHQGLSSPVTKSFNRGEC |
|  |  | 104 % of GpH7-A5/GpH7-B3/GpL16-k0 | 97.6 % of GpH7-A5/GpH7-B3/GpL16-k0 | GpH7-A5/GpH7-B3 variant I332_04F/GpL16-k0 (antibody, human IgG1, kappa, mutation in the GpH7-B3 chain only; also called He Ab) heavy 1: not shown heavy 2: not shown light: DIVMTQSPLSLPVTPGEPASISCQASESLVHSNRNTYLHWYLQKPGQSPQLLIYKVSNRFSGVPDRFSGSGSGTDFTLKISRVEAEDVGVYYCSQNTHVPPTFGQGTKVEIERTVAAPSVFIFPPSDEQLKSGTASVVCLLNNFYPREAKVQWKVDNALQSGNSQESVTEQDSKDSTYSLSSTLTLSKADYEKHKVYACEVTHQGLSSPVTKSFNRGEC |
| 108 relative (HeCon Ab = 100) | 94.8 relative (HeCon Ab = 100) |  |  | GpH7-A5/GpH7-B3 variant Y300_04F/GpL16-k0 (antibody, human IgG1, kappa, heterodimerized IgG1, mutation in one H chain only; also called He Ab) heavy 1: not shown heavy 2: not shown light: DIVMTQSPLSLPVTPGEPASISCQASESLVHSNRNTYLHWYLQKPGQSPQLLIYKVSNRFSGVPDRFSGSGSGTDFTLKISRVEAEDVGVYYCSQNTHVPPTFGQGTKVEIERTVAAPSVFIFPPSDEQLKSGTASVVCLLNNFYPREAKVQWKVDNALQSGNSQESVTEQDSKDSTYSLSSTLTLSKADYEKHKVYACEVTHQGLSSPVTKSFNRGEC |
| 102 relative (HeCon Ab = 100) | 86.3 relative (HeCon Ab = 100) |  |  | GpH7-A5/GpH7-B3 variant Y296_13S/GpL16-k0 (antibody, human IgG1, kappa, heterodimerized IgG1, mutation in one H chain only; also called He Ab) heavy 1: not shown heavy 2: not shown light: DIVMTQSPLSLPVTPGEPASISCQASESLVHSNRNTYLHWYLQKPGQSPQLLIYKVSNRFSGVPDRFSGSGSGTDFTLKISRVEAEDVGVYYCSQNTHVPPTFGQGTKVEIERTVAAPSVFIFPPSDEQLKSGTASVVCLLNNFYPREAKVQWKVDNALQSGNSQESVTEQDSKDSTYSLSSTLTLSKADYEKHKVYACEVTHQGLSSPVTKSFNRGEC |
